# From article PMC4764565, “Synergistic integration of Netrin and ephrin axon guidance signals by spinal motor neurons” (eLife, 2015)
# B1: Unc5c-Myc (receptor)
# chain: not shown
# notes: Netrin receptor Unc5c, mouse (plasmid mUnc5c-Myc, gift of Franck Polleux); also called mUnc5c-Myc; source: HEK293 (ATCC CRL 1573), transfected (calcium phosphate), in lysate
# Biological target: T1, EphB2-GFP (mouse, UniProt P54763 19-986)
# T1 construct: ephrin receptor EphB2 (plasmid Ephb2-GFP, Kao et al., 2009); also called EphB2 fused to GFP; wild-type EphB2-GFP; source: HEK293 (ATCC CRL 1573), transfected (calcium phosphate), in lysate
# T1 sequence (looked up): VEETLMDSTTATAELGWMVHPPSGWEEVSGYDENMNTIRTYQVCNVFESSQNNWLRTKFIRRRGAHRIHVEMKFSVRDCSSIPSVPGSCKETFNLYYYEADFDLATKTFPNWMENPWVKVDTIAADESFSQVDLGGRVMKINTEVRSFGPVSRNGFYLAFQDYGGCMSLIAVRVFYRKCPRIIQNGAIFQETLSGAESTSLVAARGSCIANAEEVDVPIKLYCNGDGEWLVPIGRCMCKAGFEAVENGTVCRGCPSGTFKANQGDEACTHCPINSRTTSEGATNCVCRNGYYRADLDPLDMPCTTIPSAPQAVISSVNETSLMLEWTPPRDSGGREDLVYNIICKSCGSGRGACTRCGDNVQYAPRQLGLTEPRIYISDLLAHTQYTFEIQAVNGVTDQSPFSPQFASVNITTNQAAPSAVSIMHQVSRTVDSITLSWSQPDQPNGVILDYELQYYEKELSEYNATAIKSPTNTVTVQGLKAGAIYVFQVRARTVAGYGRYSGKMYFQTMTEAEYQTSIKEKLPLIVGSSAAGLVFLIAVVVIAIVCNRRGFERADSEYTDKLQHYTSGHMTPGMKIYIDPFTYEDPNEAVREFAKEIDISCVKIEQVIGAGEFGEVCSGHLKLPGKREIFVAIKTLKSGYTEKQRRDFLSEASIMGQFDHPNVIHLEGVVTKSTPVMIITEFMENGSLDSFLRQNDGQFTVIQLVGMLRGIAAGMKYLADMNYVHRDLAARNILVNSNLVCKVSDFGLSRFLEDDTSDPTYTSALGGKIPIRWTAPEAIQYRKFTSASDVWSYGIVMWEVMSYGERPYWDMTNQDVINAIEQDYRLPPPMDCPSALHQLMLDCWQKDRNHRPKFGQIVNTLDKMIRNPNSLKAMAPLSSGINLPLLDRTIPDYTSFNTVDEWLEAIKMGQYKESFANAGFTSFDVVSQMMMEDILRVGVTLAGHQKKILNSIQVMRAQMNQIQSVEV
# Assay: co-IP; anti-GFP antibody on ProteinA/G agarose, overnight, pre-cleared lysates of co-transfected HEK293 cells (10mM Tris-Cl pH 8, 137 mM NaCl, 2mM EDTA, 1% NP40); blot for Myc; in the ligand experiments cells were starved 2 hr in OPTIMEM and incubated 15 min at 37°C with pre-clustered Fc, eB2-Fc or eA3-Fc (1.5 μg/ml), Netrin-1 (250 ng/ml) or eB2-Fc+Netrin-1 before lysis
# Settings: partners not purified
binder,measurement,value
B1,fold increase of the association after pre-incubation with eB2-Fc (against Fc),~22 fold
